These results are taken from publication PMC3798461.

For orientation: stoichiometry N means a count of units in the complex or per binding partner. Usually Kd stands for a measure of binding affinity in units of concentration. Lower therefore signals higher affinity.

In series [1] the target is mLANA_(140–314) (murine gammaherpesvirus 68 (MHV-68)). The experiment in a line: SEC; purified mLANA DBD truncations analysed by size exclusion chromatography; oligomeric state from the elution volume.
Series [2] deals with mLANA124-272 WT (Murine gammaherpesvirus 68 (MHV-68, MuHV-4)). Briefly: SPR. The conditions noted are these: 5' biotin with TTTTT spacer; EMSA: 20 mM Tris-HCl pH 7.5, 50 mM KCl, 10 mM MgCl2, 1 mM EDTA, 20 ug/mL poly(dI-dC), 0.1 mM DTT, 10% glycerol, RT; ITC: 25 mM Na/K phosphate pH 7.0, 150 mM …. On the technique in general: Mobility shift assays separate free from complexed probe on a gel.

Series [3] relates to mLANA124-314 WT (Murine gammaherpesvirus 68 (MHV-68, MuHV-4)). The experiment in a line: ITC. Conditions: EMSA: 20 mM Tris-HCl pH 7.5, 50 mM KCl, 10 mM MgCl2, 1 mM EDTA, 20 ug/mL poly(dI-dC), 0.1 mM DTT, 10% glycerol, RT; ITC: 25 mM Na/K phosphate pH 7.0, 150 mM ….
For series [4], the target named is mLANA_(140–272), C-terminal DNA-binding domain of murine gammaherpesvirus 68 latency-associated nuclear antigen (murine gammaherpesvirus 68 (MHV-68)). The experiment in a line: SEC; purified mLANA DBD truncations analysed by size exclusion chromatography; oligomeric state from the elution volume. (In general: SEC sorts molecules by how far they enter the pores of the column.)

Substance mLANA_(140–314) (domain or fragment) yielded a stoichiometry N in series [1] of 4. Turning to mLBS1 SPR ligand (biotin-TTTTT-mLBS1), in series [2], the Kd was determined as 169 nM. In the case of mLBS1 for ITC and SEC (no spacer), the Kd in series [3] is 66 nM. In series [4], “mLANA_(140–272), C-terminal DNA-binding domain of murine gammaherpesvirus 68 latency-associated nuclear antigen (domain or fragment)” yielded a stoichiometry N of 2.
